Laboratory results from patent US20240076348A1.

Biological target: Colony-stimulating factor-1 receptor (CSF-1R), encoded by c-fms (UniProt P07333)
Assay: cell-based or functional assay

Substance: C34B pCAR (CSF1-28z plus IL34-41BB), expressed on human T-cells (from UniProt P09603 33-190; Q6ZMJ4 21-242)
- tumour cell killing on repeated re-stimulation, MTT assay on T47D FMS and T47D monolayers (iterative cycles of re-stimulation): < 13
